Values quoted from earlier work in publication PMC4253632.

Molecular target: Syntaxin 4 (Homo sapiens) (UniProt Q12846)
Chain of UniProt Q12846 (Q12846 whole entry): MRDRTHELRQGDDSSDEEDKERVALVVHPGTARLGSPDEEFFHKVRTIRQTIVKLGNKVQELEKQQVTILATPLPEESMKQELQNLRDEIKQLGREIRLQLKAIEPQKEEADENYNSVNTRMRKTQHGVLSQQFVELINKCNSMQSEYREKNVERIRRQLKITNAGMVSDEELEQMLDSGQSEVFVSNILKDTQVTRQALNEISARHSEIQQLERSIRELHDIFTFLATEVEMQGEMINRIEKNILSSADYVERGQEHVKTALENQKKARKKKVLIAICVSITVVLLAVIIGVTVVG

Kd: 30 nM
Substance: Munc18c (from UniProt O00186)
